The values that follow come from article PMC3302219.

Common to all, as to assay: FRET or BRET
Conditions in all cases: remark: other sources report otherwise
(BRET reads energy transfer from a luciferase to a nearby fluorophore.)

Assay [1] has as its target T1, CXCR4 fused to CFP (CXCR4-C) or to YFP (CXCR4-Y) (human), P61073.
T1 chain: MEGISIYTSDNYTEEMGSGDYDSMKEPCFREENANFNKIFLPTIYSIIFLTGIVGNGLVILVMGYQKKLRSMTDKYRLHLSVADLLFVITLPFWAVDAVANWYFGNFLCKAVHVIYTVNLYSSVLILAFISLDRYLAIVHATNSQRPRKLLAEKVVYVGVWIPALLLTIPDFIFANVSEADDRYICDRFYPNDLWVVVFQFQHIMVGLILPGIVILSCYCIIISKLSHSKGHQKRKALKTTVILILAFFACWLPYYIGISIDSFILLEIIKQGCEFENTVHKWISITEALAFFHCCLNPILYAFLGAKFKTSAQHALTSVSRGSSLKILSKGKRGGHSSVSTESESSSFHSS

In assay [2] the target is T1, CXCR4 fused to CFP (CXCR4-C) or to YFP ….
Assay [3] shares this target.

B1: CXCR4 fused to CFP (CXCR4-C) or to YFP (CXCR4-Y), P61073 1-352 (receptor)
chain: T1 chain
Consider B1, for which the FRET50 in assay [1] worked out at 1.61; in assay [2], 1.55; in assay [3], 1.27.
